Laboratory results taken from patent US10550172B2, “Serpin reactive center loop peptides and methods of use” (University of Florida Research Foundation, Incorporated, priority 2015, dated 2020).
Entries after “also recorded” stand apart in the source; their conditions may differ. Where a SMILES comes first, the peptide text is derived from it. Where no end group is shown, it is not given here.

What was measured:
[1] = system: aortic allograft (plaque growth); assay: Mouse aortic allograft transplant model
Protocol: To assess potential anti-inflammatory actions of individual serpin-derived peptides, peptide treatment was tested in mice after aortic allograft transplant at 4 weeks.
Ninety three mice had aortic allograft transplantation; 56 had PAI-1−/− (C57BL/6 background) donor to BALB/c (PAI-1+/+) recipient; and 37 had C57BL/6 wild type (PAI-1+/+) to BALB/c (PAI-1+/+) recipient. […] Due to the large number of surgeries required, both the PAI-1−/− and the WT mouse implants were utilized. The PAI-1−/− mice also allowed analysis of serpin response in a mouse transplant lacking a key thrombolysis regulating serpin, PAI-1. A 0.3 cm aortic segment isolated from the donor mouse was transplanted into the infra-renal aorta of recipient mice for aortic allograft studies (Table 1). The aortic transplant was anastomosed end-to-end using Sharpoint 11/0 nylon sutures (Surgical Specialties Corporation, Reiding, Mass., USA) under general anesthetic (6.5 mg/100 g body weight Somnotrol, MTC Pharmaceuticals, Cambridge, ON, Canada) given by intramuscular (i.m.) injection. WT C57BL/6 mice were purchased directly from Jackson Laboratories (Bar Harbor, Me., U.S.A.) and PAI-1−/− mice were bred in-house using mice supplied by Jackson Laboratories prior to surgery. Mice were followed for 4 weeks after transplant. […] Serpins or serpin-derived peptides were infused by intravenous (i.v.) tail vein injection immediately after transplant surgery, once aortic pulsation was again visible. At 4 weeks after aortic transplant, mice were euthanized with 0.05 ml euthanyl (Bimeda—MTC Animal Health Ltd., Cambridge, ON, Canada) by i.m. injection.
Donor aortic transplant implants and adjacent recipient aorta (0.5-0.6 cm long) were cut into two 0.25-0.3 cm pieces, fixed, paraffin embedded, and cut into 5 μm sections (two per aortic section, providing 4 sections for analysis of each transplanted mouse aorta) and stained with Haematoxylin and eosin for morphometric analysis. Areas of plaque, lumen and internal elastic lamina were measured by means of the Olympus application program using a Sony Power HAD3CCD color video camera attached to the microscope and calibrated to the microscope objective. The mean total cross sectional area of the intima, using sections with the largest detectable plaque area, was calculated for each aortic specimen. Numbers of invading mononuclear cells were counted per high powered field area at three sites in the intimal, medial and adventitial layers and the mean count for each arterial layer and specimen calculated.

[2] = system: PMA activated THP-1 monocytes; assay: Membrane fluidity cell activation assay; format: cell-based, human; details: peptides 500, 1000, 1500 ng/ml, Serp-1, NSP 500 ng/mL
Protocol: Cellular membrane fluidity is measured by pyrene dimer formation in the lipid bilayer and is used as a non-specific measure of cell activation (Zalai C V, et al. (2001) J Am Coll Cardiol 38: 1340-1347). Increases in THP-1 human monocyte membrane fluidity, after PMA activation, correlate with changes in cell activation, adhesion and motility. […] Serpin-derived peptide treatments paralleled in vivo activity with the one exception being the S-4 peptide. […] All serpin-derived peptides were tested at three doses 500, 1000 and 1500 ng/ml.
One million >95% viable THP-1, Jurkat T, or 5×10^5 HUVEC cells were labeled with BPP (0.8 μM) for studying core membrane fluidity, three hours prior to cell activation as previously described (Viswanathan K, et al. (2009) B. J Leukoc Biol 85: 418-426; Viswanathan K, et al. (2006) Thromb Haemost 95: 499-510; Zalai C V, et al. (2001) J Am Coll Cardiol 38: 1340-1347; Viswanathan K, et al. (2012) PLoS One 7: e44694; and Christov A, et al. (2001) Lasers Surg Med 28: 414-426). […] At the end of one hour, cells were washed to remove excess fluorescent probe and monomer, excimer fluorescence emission intensities were measured at 390 nm and 485 nm, respectively, during excitation at 320 nm using a fluorescent dual wavelength reader (Fluoroskan, Thermolab systems, Oy, USA). […]

[3] = patients with acute unstable angina after stent implantation; cited from earlier work
Jurkat T cells = assay: RT-PCR signaling pathway gene expression analysis, Jurkat T cells; format: cell-based, human; details: vs saline
From the text: (§1) Shared effects of Serp-1 and S-1, one of the active Serp-1 RCL peptide inhibitors for plaque growth, on transcription of representative genes in signaling pathways were studied in human Jurkat T cell (FIG. 5A and FIG. 5B) and THP-1 monocytes (FIGS. […]). […] Serp-1 and the Serp-1 peptides (serpin-derived peptides) S-1 and S-5 were compared to saline treated controls. Genes with two-fold change in expression with P-value less than 0.05 by Student's t-test were considered significant.
(§2) To further examine potential mechanisms of inhibitory activity for individual serpin peptides, THP-1 monocyte and Jurkat T cells in culture were treated with individual serpins or serpin-derived peptides with proven inhibitory activity for plaque growth in vivo (Viswanathan K, et al. (2009) B. J Leukoc Biol 85: 418-426; Viswanathan K, et al. (2006) Thromb Haemost 95: 499-510; Chen H, et al. (2013) Antimicrob Agents Chemother 57: 4114-4127; and Viswanathan K, et al. (2012) PLoS One 7: e44694). RT-PCR signaling pathway gene arrays (Sigma-Aldrich, St. Louis, Mo., USA) were analyzed in triplicate per cell type using predicted peptide or serpin treatment.

THP-1 monocytes = assay: RT-PCR signaling pathway gene expression analysis, THP-1 monocytes; format: cell-based, human; details: THP-1 cells, vs saline
From the text: as §1, §2

[4] = biological target: T1, urokinase-type plasminogen activator (uPA) (Homo sapiens, UniProt P00749); assay: uPA chromogenic enzyme activity assay; format: biochemical; details: chromogenic protease activity assay
T1 construct: purchased Sigma U0633
Protocol: Activity of purified NSP and Serp-1 was measured as inhibitory activity for uPA, using a chromogenic assay (Assaypro, St. Louis, Mo., USA) as previously described (for example, see, Dai E, et al. (2003) J Biol Chem 278: 18563-18572). Serp-1, NSP or individual peptides were mixed with enzyme solution at room temperature for one hour, per the manufacturers protocol (American Diagnostics). After incubation, 10 μl of chromogenic substrate was added. The 96-well plate was covered and placed in a wet box for overnight incubation at 37° C. After a 17 hr incubation, the plate was read at 405 nm by microplate reader (Bio-Tek Instruments). Reaction buffer (100 mM NaCl, 2 mM CaCl2, 100 mM Tris-HCl, pH 7.5, Triton X-100, 0.005%) was used for dilutions of proteases, Serp-1, NSP, or serpin peptides and chromogenic substrate. Residual protease activity was calculated with comparison to control samples without active serpin or peptides.
Serpin inhibition activity of peptides was also assessed using assays for uPA, tPA, plamin, PAI-1 and anti-thrombin III (ATIII). […] Peptide inhibition of ATIII (ThermoFisher Scientific, Grand Island, N.Y.) was measured as a reduction in its thrombin activity. uPA (Sigma, U0633) activity towards pefachrome uPA (Enzyme Research Laboratories, South Bend, Ind., P082-33) was used for assaying peptide inhibition. […]

[5] = in vivo; cited from earlier work
lethal viral sepsis = details: in vivo; cited from earlier work

CC(C)C[C@H](NC(=O)[C@H](C)NC(=O)[C@H](CC(N)=O)NC(=O)[C@@H](N)CCCNC(=N)N)C(=O)O [S-3, RNAL] (H-RNAL-OH; N-terminus and C-terminus assumed)
Adverse Events (number) ([1]; 15 μg/mouse): 0

IPRNAL [S-1, IPRNAL]
Adverse Events (number) ([1]; 1.5 μg/mouse): 0
Adverse Events (kind) ([1]; 15 μg/mouse): thrombosis; also recorded: fighting injury
Adverse Events (number) ([1]; 15 μg/mouse): 1
Adverse Events (number) ([1]; 150 μg/mouse): 0

MAVLYPQVIVDHPFFFLIRNR [S-8]
Adverse Events (number) ([1]; 15 μg/mouse): 0

IAISRM [S-4, IAISRM]
Adverse Events (number) ([1]; 15 μg/mouse): 0

TAIVANKPF [S-5]
Adverse Events (number) ([1]; 1.5 μg/mouse): 0
Adverse Events (number) ([1]; 15 μg/mouse): 0
Adverse Events (number) ([1]; 150 μg/mouse): 0

ISRMAV [S-2, ISRMAV]
Adverse Events (kind) ([1]; 15 μg/mouse): thrombosis
Adverse Events (number) ([1]; 15 μg/mouse): 1

GTTASSDTAITLIPR [S-7]
Adverse Events (number) ([1]; 15 μg/mouse): 0

EVNEEGSEAAAVSGM [S-6]
Adverse Events (kind) ([1]; 1.5 μg/mouse): thrombosis
Adverse Events (number) ([1]; 1.5 μg/mouse): 1
mortality (early thrombosis at site of aortic allograft transplant) ([1]; 15 μg dose): 100%
Adverse Events (kind) ([1]; 15 μg/mouse): thromboses
Adverse Events (number) ([1]; 15 μg/mouse): 6

B1: Serp-1: secreted myxomavirus-derived protein (serpin) that binds and inhibits uPA, tPA, plasmin and factor X (protein)
chain: RDIGLWTFRYVYNESDNVVFSPYGLTSALSVLRIAAGGNTKREIDVPESVVEDSDAFLALRELFVDASVPLRPEFTAEFSSRFNTSVQRVTFNSENVKDVINSYVKDKTGGDVPRVLDASLDRDTKMLLLSSVRMKTSWRHVFDPSFTTDQPFYSGNVTYKVRMMNKIDTLKTETFTLRNVGYSVTELPYKRRQTAMLLVVPDDLGEIVRALDLSLVRFWIRNMRKDVCQVVMPKFSVESVLDLRDALQRLGVRDAFDPSRADFGQASPSNDLYVTKVLQTSKIEADERGTTASSDTAITLIPRNALTAIVANKPFMFLIYHKPTTTVLFMGTITKGEKVIYDTEGRDDVVSSV
IEx/IMon ratio (membrane fluidity) [2]: consistently reduced membrane fluidity significantly
early markers of myocardial damage [3]: reduced early markers of myocardial damage
BCL-2 gene expression (Jurkat T cells): had no effect
TCF7 gene expression (Jurkat T cells): inhibited
CCL 20 gene expression (Jurkat T cells; data not shown): had no effect
CCND-1 gene expression (Jurkat T cells; data not shown): had no effect
MMP7 gene expression (Jurkat T cells; data not shown): had no effect
interleukin-8 (IL-8) gene expression (Jurkat T cells; data not shown): had no effect
BRCA1 gene expression (THP-1 monocytes): induced
Selectin P ligand (CD162) gene expression (THP-1 monocytes): induced
cyclin-dependent kinase inhibitor 1B (CDKN1; p27) gene expression (THP-1 monocytes): induced
glycogen synthase (GYS) gene expression (THP-1 monocytes): induced
inhibition of uPA activity [4]: inhibited; also recorded: dose dependent with greater inhibition at the higher concentration (500 ng)
plasma half-life [5]: 20 to 60 min
survival in mouse models of lethal viral sepsis (lethal viral sepsis): improved survival

B2: NSP: mammalian serpin, neuroserpin, that binds tPA and uPA (protein)
chain: TGATFPEEAIADLSVNMYNRLRATGEDENILFSPLSIALAMGMMELGAQGSTQKEIRHSMGYDSLKNGEEFSFLKEFSNMVTAKESQYVMKIANSLFVQNGFHVNEEFLQMMKKYFNAAVNHVDFSQNVAVANYINKWVENNTNNLVKDLVSPRDFDAATYLALINAVYFKGNWKSQFRPENTRTFSFTKDDESEVQIPMMYQQGEFYYGEFSDGSNEAGGIYQVLEIPYEGDEISMMLVLSRQEVPLATLEPLVKAQLVEEWANSVKKQKVEVYLPRFTVEQEIDLKDVLKALGITEIFIKDANLTGLSDNKEIFLSKAIHKSFLEVNEEGSEAAAVSGMIAISRMAVLYPQVIVDHPFFFLIRNRRTGTILFMGRVMHPETMNTSGHDFEEL
IEx/IMon ratio (membrane fluidity) [2]: consistently reduced membrane fluidity significantly
Adverse Events (kind) ([1]; 15 μg/mouse): thrombosis
Adverse Events (number) ([1]; 15 μg/mouse): 1
inhibition of uPA activity [4]: inhibited
